According to patent US20170355765A1 (published 2017):

Biological target: T1, human TEM8 expressed on CHO or HEK 293 cells (human, UniProt Q9H6X2 33-564)
T1 construct: also called hTEM8; CHO TEM8
Experiment: binding to CHO cells expressing human TEM8

T1 sequence (Q9H6X2 33-564 limits assumed): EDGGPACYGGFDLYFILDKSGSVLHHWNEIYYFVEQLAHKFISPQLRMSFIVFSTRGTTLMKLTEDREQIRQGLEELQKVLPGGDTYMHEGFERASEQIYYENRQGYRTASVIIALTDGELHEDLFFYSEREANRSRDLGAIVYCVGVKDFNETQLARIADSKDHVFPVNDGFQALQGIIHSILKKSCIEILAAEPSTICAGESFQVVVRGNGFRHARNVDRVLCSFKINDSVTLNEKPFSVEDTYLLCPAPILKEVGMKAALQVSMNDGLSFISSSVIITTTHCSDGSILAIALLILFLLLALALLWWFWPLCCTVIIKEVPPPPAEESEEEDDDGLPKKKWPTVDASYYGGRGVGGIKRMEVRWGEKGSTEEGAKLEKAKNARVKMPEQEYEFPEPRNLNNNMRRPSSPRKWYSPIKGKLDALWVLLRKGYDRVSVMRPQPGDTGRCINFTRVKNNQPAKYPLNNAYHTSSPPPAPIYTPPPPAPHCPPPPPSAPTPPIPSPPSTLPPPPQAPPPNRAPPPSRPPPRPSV

B1: antibody drug conjugate including the m825 antibody (in human IgG1 format) conjugated to MMAE (other)
VH: QVQLVQSGAEVKKPGTSVKVSCKVPGYTFSSYAISWVRQAPGQGLEWMGGIIPIFGTTNYAQKFQGRVTITGEESTSTVYMELSSLRSEDTAVYYCARDTDYMFDYWGQGTLVTVSS
VL: SSELTQDPVVSVALGETVSITCQGDNLRDFYASWYQQKPGQAPLLVMYGKNRRPSGIPDRFSGSTSGNTLSLTITGAQAEDEADYYCSSRDNSKHVVFGGGTKVTVL
modifications: MMAE toxin with stretcher unit, Val-Cit peptide cleavage site and spacer, linked to thiol groups formed by partial reduction of inter-chain disulfide bonds (positions not stated)
notes: also called m825-MMAE; m825-MMAE conjugate
- binding result: binds
